Laboratory results from article PMC4683255, “Evidence for a Functional O-Linked N-Acetylglucosamine (O-GlcNAc) System in the Thermophilic Bacterium Thermobaculum terrenum*” (The Journal of Biological Chemistry, 2015).
Blank lines part the entries; values can stand above or below the molecule they belong to. Where no end group is shown, it is not given here. The star is where a group is joined. βGlcNAc = CC(=O)N[C@@H]1[C@@H](O)[C@H](O)[C@@H](CO)O[C@H]1*

How the values were obtained:
TtOGA = molecular target: T1, TtOGA (Thermobaculum terrenum, UniProt D1CDN2); assay: fluorogenic 4MU-GlcNAc hydrolysis; Ki from IC50 by Cheng-Prusoff; format: biochemical; conditions: 4MU-GlcNAc 90 uM (= Km); 4 pM enzyme; 1 min preincubation
T1 construct: gene Tter_0116; full-length, N-terminal GST fusion from E. coli BL21, GST cut off with PreScission protease (pGEX-6P-1)

TtOGT = molecular target: T2, TtOGT (Thermobaculum terrenum, UniProt D1CIY5, K341M); assay: X-ray crystal structure of complex, […] A; format: binding; conditions: co-crystallized with 10 mM UDP; active site; mutant stated in the crystallization methods; PDB code assigned by reader
T2 construct: gene Tter_2822; full-length, N-terminal GST fusion from E. coli BL21, GST cut off with PreScission protease (pGEX-6P-1)

[1] = molecular target: T3, TtOGA D120N (Thermobaculum terrenum O-GlcNAcase orthologue, product of gene Tter_0116, catalytic acid mutant) (Thermobaculum terrenum strain YNP1, UniProt D1CDN2 1-474, D120N); assay: crystal structure; co-crystallised: 40 mg/ml TtOGA D120N with 7.2 mM hTab1-O-GlcNAc peptide in 50 mM HEPES pH 7.5, 250 mM NaCl, 0.5 mM TCEP; sitting drops, 38% PEG 4000, 400 mM sodium acetate, 0.1 M Tris-HCl pH 8.5, 22 °C; 2.06 Å; conditions: both partners purified
T3 construct: O-GlcNAcase (GH84) orthologue TtOGA of Thermobaculum terrenum YNP1, gene Tter_0116, full length, cloned into pGEX-6P-1; GST removed with PreScission protease; also called D120N mutant of TtOGA; Ttoga product; source: E. coli BL21, purified (GSH-Sepharose, PreScission cleavage, Superdex 75); not shown: GST, N-terminal, cleaved
T3 sequence (looked up): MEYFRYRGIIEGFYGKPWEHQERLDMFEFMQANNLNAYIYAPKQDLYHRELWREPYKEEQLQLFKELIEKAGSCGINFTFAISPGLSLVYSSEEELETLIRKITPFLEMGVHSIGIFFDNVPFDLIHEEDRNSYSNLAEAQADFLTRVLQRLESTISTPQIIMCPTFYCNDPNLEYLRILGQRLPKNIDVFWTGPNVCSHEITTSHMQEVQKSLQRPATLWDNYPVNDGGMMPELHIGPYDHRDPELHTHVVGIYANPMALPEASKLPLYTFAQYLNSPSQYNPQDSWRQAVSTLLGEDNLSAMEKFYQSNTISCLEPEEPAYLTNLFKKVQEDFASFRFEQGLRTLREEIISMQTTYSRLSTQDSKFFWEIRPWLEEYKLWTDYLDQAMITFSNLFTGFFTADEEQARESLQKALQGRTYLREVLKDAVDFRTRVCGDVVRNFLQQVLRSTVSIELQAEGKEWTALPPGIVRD

[2] = substrate: CC(=O)N[C@H]1[C@H](Oc2ccc3c(C)cc(=O)oc3c2)O[C@H](CO)[C@@H](O)[C@@H]1O; assay: fluorescence of released 4-methylumbelliferone, Michaelis-Menten fit; format: biochemical, Thermobaculum terrenum; conditions: TBS, 0.1 mg/ml BSA, 2% DMSO; 0.2 nM enzyme

T2 sequence (D1CIY5 entry or part of it K341M): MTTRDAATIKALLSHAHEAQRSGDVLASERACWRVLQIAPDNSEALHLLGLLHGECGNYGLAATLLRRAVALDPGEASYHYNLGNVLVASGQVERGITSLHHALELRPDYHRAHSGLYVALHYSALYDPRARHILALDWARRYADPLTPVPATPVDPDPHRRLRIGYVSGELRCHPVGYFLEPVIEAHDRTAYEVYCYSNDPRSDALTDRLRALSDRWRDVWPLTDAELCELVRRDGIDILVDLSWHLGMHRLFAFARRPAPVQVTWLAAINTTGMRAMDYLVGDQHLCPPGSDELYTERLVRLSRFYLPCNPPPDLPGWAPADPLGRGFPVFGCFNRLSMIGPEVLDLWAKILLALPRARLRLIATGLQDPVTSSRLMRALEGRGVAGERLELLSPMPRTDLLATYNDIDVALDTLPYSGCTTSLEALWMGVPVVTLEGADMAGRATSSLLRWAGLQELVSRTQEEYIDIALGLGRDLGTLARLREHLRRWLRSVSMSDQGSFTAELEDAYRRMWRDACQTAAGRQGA

Molecule: O=c1ccn([C@@H]2O[C@H](COP(=O)(O)OP(=O)(O)O)[C@@H](O)[C@H]2O)c(=O)[nH]1 [UDP]
- X-ray crystal structure of complex, 2.80 A (TtOGT): TtOGT was co-crystallized with the product of O-GlcNAc transfer, UDP

B2: TtOGA (Thermobaculum terrenum ATCC BAA-798) (protein)
chain: MEYFRYRGIIEGFYGKPWEHQERLDMFEFMQANNLNAYIYAPKQDLYHRELWREPYKEEQLQLFKELIEKAGSCGINFTFAISPGLSLVYSSEEELETLIRKITPFLEMGVHSIGIFFDDVPFDLIHEEDRNSYSNLAEAQADFLTRVLQRLESTISTPQIIMCPTFYCNDPNLEYLRILGQRLPKNIDVFWTGPNVCSHEITTSHMQEVQKSLQRPATLWDNYPVNDGGMMPELHIGPYDHRDPELHTHVVGIYANPMALPEASKLPLYTFAQYLNSPSQYNPQDSWRQAVSTLLGEDNLSAMEKFYQSNTISCLEPEEPAYLTNLFKKVQEDFASFRFEQGLRTLREEIISMQTTYSRLSTQDSKFFWEIRPWLEEYKLWTDYLDQAMITFSNLFTGFFTADEEQARESLQKALQGRTYLREVLKDAVDFRTRVCGDVVRNFLQQVLRSTVSIELQAEGKEWTALPPGIVRD
notes: full-length, N-terminal GST fusion from E. coli BL21, GST cut off with PreScission protease (pGEX-6P-1)
- Km [2]: 90 µM
- kcat [2]: 180 s⁻¹

Next, values leading:

- Ki (TtOGA): 18 nM
Molecule: C=CC=CC(=O)N[C@H]1c2nc(CCc3ccccc3)cn2[C@H](CO)[C@@H](O)[C@@H]1O [GlcNAcstatin G]

- binding result [1]: binds
B1: hTab1-O-GlcNAc peptide (392-VPYgSSAQ-398, gS is GlcNAcylated serine) (peptide)
peptide: VPYS(βGlcNAc)SAQ
notes: probably synthetic; also called hTab1 glycopeptide; glycopeptide derived from the validated hTab1 glycosylation site
